Results as given in patent US20230357424A1 (published 2023).

T1: hCD45 D4 domain displayed on yeast as Aga2 fusion (human, UniProt P08575 479-571)
T1 construct: not shown: Aga2p anchor protein for yeast surface expression
T1 sequence: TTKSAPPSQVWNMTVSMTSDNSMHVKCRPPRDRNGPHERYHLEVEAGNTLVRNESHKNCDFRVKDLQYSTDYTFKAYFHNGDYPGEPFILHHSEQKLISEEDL

T2: hCD45 D3 domain displayed on yeast as Aga2 fusion (human)
T2 construct: not shown: Aga2p anchor protein for yeast surface expression
T2 chain: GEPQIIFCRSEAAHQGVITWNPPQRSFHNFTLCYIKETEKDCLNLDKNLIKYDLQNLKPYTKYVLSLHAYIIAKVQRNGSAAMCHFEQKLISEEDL

T3: hCD45 D1 domain displayed on yeast as Aga2 fusion (human)
T3 construct: not shown: Aga2p anchor protein for yeast surface expression
T3 chain: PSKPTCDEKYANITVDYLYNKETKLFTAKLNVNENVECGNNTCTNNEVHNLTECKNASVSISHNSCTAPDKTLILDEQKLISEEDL

T4: human CD45 D1-D4 (amino acids 194-578) with C-terminal 8xHis tag (human, UniProt P08575 194-578)
T4 construct: Made in house in expi293 cells; SPR analyte; also called D1-D4 region of human CD45RO
T4 sequence: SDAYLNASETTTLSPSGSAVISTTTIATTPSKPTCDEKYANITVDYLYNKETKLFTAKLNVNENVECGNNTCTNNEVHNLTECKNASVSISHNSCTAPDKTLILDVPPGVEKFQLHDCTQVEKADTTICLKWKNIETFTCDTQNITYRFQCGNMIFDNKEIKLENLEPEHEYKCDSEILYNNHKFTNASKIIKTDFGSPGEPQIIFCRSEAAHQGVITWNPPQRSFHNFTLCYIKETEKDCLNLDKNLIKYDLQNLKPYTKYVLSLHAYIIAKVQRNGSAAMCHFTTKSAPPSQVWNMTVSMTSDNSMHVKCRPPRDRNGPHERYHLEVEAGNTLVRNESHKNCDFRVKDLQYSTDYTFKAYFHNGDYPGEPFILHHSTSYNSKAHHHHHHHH


target: T1, hCD45 D4 domain displayed on yeast as …; assay: epitope mapping (yeast display) and affinity studies; grade in column Notes
Description: (§1) CD45 domains described in FIG. 2 were fused to the C-term of Aga2 with an N-term FLAG and C-term c-Myc tag. Yeast constructs were expressed on the surface of yeast (S. cervisiae ATCC strain YVH10). Yeast were grown overnight at 30C in synthetic selective media SD-SCAA, then induced again overnight at 20° C. in SG-SCAA. Yeast were incubated with individual a-CD45 antibodies or a-CD45 VHH for 60 minutes on ice, washed, and incubated with anti-mouse/anti-human Fc or anti-VHH Alexa647 secondary antibody as well as an anti-FLAG or anti-c-Myc Alexa488 secondary antibody. Labeled yeast were analyzed by flow cytometry on a Beckman Coulter Cytoflex® and analyzed using the FlowJo® software package.
(§2) The results of the epitope mapping of the VHHs described above conducted in substantial accordance with the teaching of Example 3 and the affinity measurements conducted in substantial accordance with the teaching of Example 4 above are summarized in the following Table 7 and the sequences of the VHHs and corresponding CDRs are provide in Table 4 above: […]

| Molecule | binding result |
| --- | --- |
| 2D6 VHH, His-tagged (VHH, Clonotype 6; not shown: His tag) VHH: QVQLQESGGGLVQAGASLRLSCAASGRTFSSFMGWFRQAPGKERKFVATINWNGGATGYADSVKGRFTISRDNAKNTLYLQMNSLKPEDTAVYYCAAARTGSAYYTSSDAGEYNYWGQGTQVTVSS | binds |

Target: T2, hCD45 D3 domain displayed on yeast as …
Assay: as above
Description: as §1, §2

| Molecule | binding result |
| --- | --- |
| 1A10 VHH, His-tagged (VHH, Clonotype 10; not shown: His tag) VHH: QVQLQAFGGGLVQAGGSLGLSCSASGTIFNLDYMGWYRQALGKQRELVATITSDGRTNYADSVKGRFTIFRDGAKNAILMQMNSLKPEDTAVYYCKAYLSGRSDYWGQGTQVTVSS | binds |
| 1D6 VHH, His-tagged (VHH, Clonotype 10; not shown: His tag) VHH: QVQLQESGGGSVQAGGSLGLFCSASGTIFNIDVMGWYRQAPGKQRELVATITSDGRTNYADSVKGRFTISRDGAKNAVHVQMNSLKPEDTAVYYCKAYLSGRSDYWGQGTQVTVSS | binds |

Target: T3, hCD45 D1 domain displayed on yeast as …
Assay: as above
Description: as §1, §2

| Molecule | binding result |
| --- | --- |
| 1G1 VHH, His-tagged (VHH, Clonotype 7; not shown: His tag) VHH: QVQLQASGGGLVQAGGSLRLSCAASGRTVSSDAMGWFRQAPGKEREFVAAINWNGASTYYGDSAQGRFTISRDNAKNTVYLQMNSLKSEDTAVYYCAASDWVVGGISLMNGAEYKYWGQGTLVTVSS | binds |

target: human CD45 D1-D4 (amino acids 194-578) with C-terminal 8xHis tag (human) (UniProt P08575); assay: SPR, Biacore T200, single cycle kinetics; IgG captured on Protein A chip, CD45 D1-D4 as analyte

| Molecule | Kd [nM] |
| --- | --- |
| 9.4 anti-CD45 antibody, recombinant mouse IgG2a | 2.4 |
| 4B2 anti-CD45 antibody, recombinant mouse IgG2a (antibody, from another filing, V domains shown) VH: GVQLQESGAELARPGASVKMSCKASGYTFTSYTMQWVKQRPGQGLEWIGYINPSSGYIKYNQKFKDKVTLTADKSSTTAYMQLSRLTSEDSAVYYCARRGSYFFDFWGQGTSVTVSS VL: DIVITQDELSNPVTSGESVSISCRSSKSLLYKDGKTYLNWFLQRPGQSPQLLIYLMSTRASGVSDRFSGSGSGTDFTLEISRVKAEDVGVYYCQQLVEYPFTFGGGTKLEVK | 17 |
| gap8.3 anti-CD45 antibody, recombinant mouse IgG2a (antibody, from another filing, V domains shown) VH: EVQLQQSGPELVKTGASVKISCKASGYSFTGYFIHWVKQSHGKSLEWIGYISCYNGATSYNQKFKGKATFTVDTSSSTAYMQFNSVTSEDSAVYYCVRNYYGNLDAMDYWGQGTSVTVSS VL: DIVMTQSHKFMSTSVGDRVSITCKASQDVSTAVAWYQQKPGQSPKILIYSASYRYTGVPDRFTGSGSGTDFTFTISSVQAEDLAVYYCQQHYSTPRTFGGGTKLEIK | 21 |

target: human CD45 D1-D4 (amino acids 194-578) with C-terminal 8xHis tag (human) (UniProt P08575); assay: SPR, Biacore T200, single cycle kinetics; scFv-Fc captured on Protein A chip, CD45 D1-D4 as analyte

| Molecule | Kd [nM] |
| --- | --- |
| 9.4 scFv linked to a human IgG1 Fc domain | 18 |
| 4B2 scFv linked to a human IgG1 Fc domain (scFv, from another filing, V domains shown) VH: GVQLQESGAELARPGASVKMSCKASGYTFTSYTMQWVKQRPGQGLEWIGYINPSSGYIKYNQKFKDKVTLTADKSSTTAYMQLSRLTSEDSAVYYCARRGSYFFDFWGQGTSVTVSS VL: DIVITQDELSNPVTSGESVSISCRSSKSLLYKDGKTYLNWFLQRPGQSPQLLIYLMSTRASGVSDRFSGSGSGTDFTLEISRVKAEDVGVYYCQQLVEYPFTFGGGTKLEVK | 12 |
| gap8.3 scFv linked to a human IgG1 Fc domain (scFv, from another filing, V domains shown) VH: EVQLQQSGPELVKTGASVKISCKASGYSFTGYFIHWVKQSHGKSLEWIGYISCYNGATSYNQKFKGKATFTVDTSSSTAYMQFNSVTSEDSAVYYCVRNYYGNLDAMDYWGQGTSVTVSS VL: DIVMTQSHKFMSTSVGDRVSITCKASQDVSTAVAWYQQKPGQSPKILIYSASYRYTGVPDRFTGSGSGTDFTFTISSVQAEDLAVYYCQQHYSTPRTFGGGTKLEIK | 40 |

target: T4, human CD45 D1-D4 (amino acids 194-578) …; assay: SPR, Biacore T200, single cycle kinetics; VHH monomeric Fc fusion captured on Protein A chip, CD45 D1-D4 as analyte
Description: The yeast display system as described above was employed to domain map the VHH binding sites. For labeling, His-tagged VHH proteins were incubated with the yeast and detected using an anti-VHH antibody. Seven VHH clonotypes bound across all four domains of CD45RO, with clonotypes 3, 4, and 7 targeting the D1 and D2 domains, clonotype 10 binding the D3 domain, clonotypes 2, 6, and 8 interacting with the D4 domain (Table 3).
Affinities were determined using a Biacore T200 instrument by measuring Kon/Koff in single cycle kinetics mode. Hybridoma clones were either reformatted and expressed in the form of the parent IgG (gap8.3, 4B2, 9.4 as murine IgG2A, VHE as human IgG1), and scFvs were expressed as human IgG1 Fc fusions. For the anti-CD45 VHH, proteins were expressed as monomeric Fc fusions. […] Human CD45 D1-D4 was generated in house with a C-terminal 8×His tag (SEQ ID NO: 610) and expressed and purified from expi293 cells by standard Ni- and SEC chromatography methods. Kinetic affinity constants were calculated using the Biacore® T200 software package.

| Molecule | Kd [nM] |
| --- | --- |
| 1E4 VHH monomeric Fc fusion (Fc fusion, Clonotype 3; Construct used for SPR; not shown: monomeric Fc tag) VHH: QVQLQESGGGLVQPGGSLRLSCAASGGTFSDYGMGWFRQAPGKEREFVSSISWSGNSVYYAGAVRGRFTISRDNAKNTVYLQMNSLQPEDTAVYYCAASSTWNNNDPTEYEYWGQGTLVTVSS | 299 |
| 1G1 VHH monomeric Fc fusion (Fc fusion, Clonotype 7; Construct used for SPR; not shown: monomeric Fc tag) VHH: QVQLQASGGGLVQAGGSLRLSCAASGRTVSSDAMGWFRQAPGKEREFVAAINWNGASTYYGDSAQGRFTISRDNAKNTVYLQMNSLKSEDTAVYYCAASDWVVGGISLMNGAEYKYWGQGTLVTVSS | 28 |
| 2F8 VHH monomeric Fc fusion (Fc fusion, Clonotype 7; Construct used for SPR; not shown: monomeric Fc tag) VHH: QVQLQQFGGGLVQAGGSLRLSCAASGRTFSGYAMGWFRQAPGKEREFVAAINWSGGSTYYADSVKGRYTISRDNAKNTGYLQMNSLKSEDTAVYYCAASDWVVGGISLMNGAEYKYWGQGTLVTVSS | 69 |
| 1A10 VHH monomeric Fc fusion (Fc fusion, Clonotype 10; Construct used for SPR; not shown: monomeric Fc tag) VHH: QVQLQAFGGGLVQAGGSLGLSCSASGTIFNLDYMGWYRQALGKQRELVATITSDGRTNYADSVKGRFTIFRDGAKNAILMQMNSLKPEDTAVYYCKAYLSGRSDYWGQGTQVTVSS | 32 |
| 1D6 VHH monomeric Fc fusion (Fc fusion, Clonotype 10; Construct used for SPR; not shown: monomeric Fc tag) VHH: QVQLQESGGGSVQAGGSLGLFCSASGTIFNIDVMGWYRQAPGKQRELVATITSDGRTNYADSVKGRFTISRDGAKNAVHVQMNSLKPEDTAVYYCKAYLSGRSDYWGQGTQVTVSS | 522 |
| 2G4 VHH monomeric Fc fusion (Fc fusion, Clonotype 2; Construct used for SPR; not shown: monomeric Fc tag) VHH: QVQLQEFGGGLVQAGGSLRLSCAASGSISRINAMGWYRQAPGKQRELVAVITSGGSTHYADSVKGRFTISRDNAKNTLYLQMNSLKPEDTAVYYCNGRRKTTGWGSLREWEGSRDPDEYNYWGQGTLVTVSS | 8.3 |
| 2C5 VHH monomeric Fc fusion (Fc fusion, Clonotype 6; Construct used for SPR; not shown: monomeric Fc tag) VHH: QVQLQEFGGGLVQAGASLRLSCAASGGTFSYFMGWFRQAPGKEREFVATINRNGGATGYADSVKGRFTISRDNAKNTLYLQMDSVTPEDTAVYYCAAARESSVYYTSTDPAEYGYWGQGTQVTVSS | 1.4 |
| 2H7 VHH monomeric Fc fusion (Fc fusion, Clonotype 8; Construct used for SPR; not shown: monomeric Fc tag) VHH: QVQLQESGGGLVQAGGSLRLSCAASGRTFSTHAMGWFRQAPGKEREFVAAIAWSGGSTYYADSVKGRFTISRDISKNTIYLQMNSLKPEDTALYYCAATNGGAWHYHERYFGSWGQGTLVTVSS | 0.88 |
